Laboratory results: patent US20170022287A1 (Chugai, published 2017)
Residue numbers refer to the chain shown, from its start.

Key:
[1] = target: T1, mouse Fcγ receptor III extracellular domain with C-terminal His tag (mouse, UniProt P08508 31-215); assay: SPR (Biacore) kinetics, antibody captured on Protein L, mFcγR as analyte, 1:1 Langmuir model
T1 construct: extracellular domain; also called mFcγRIII; not shown: His tag at the C terminus
T1 sequence (looked up): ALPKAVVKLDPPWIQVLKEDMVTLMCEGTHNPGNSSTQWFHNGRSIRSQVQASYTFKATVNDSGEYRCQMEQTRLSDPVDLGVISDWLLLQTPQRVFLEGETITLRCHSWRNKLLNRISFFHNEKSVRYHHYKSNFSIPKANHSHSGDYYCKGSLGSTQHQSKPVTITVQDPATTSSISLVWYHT

mouse CD137 on T cells = mouse CD137 on T cells (mouse, UniProt P20334 24-256); assay: cell-based or functional assay
Chain of mouse CD137 on T cells (P20334 24-256): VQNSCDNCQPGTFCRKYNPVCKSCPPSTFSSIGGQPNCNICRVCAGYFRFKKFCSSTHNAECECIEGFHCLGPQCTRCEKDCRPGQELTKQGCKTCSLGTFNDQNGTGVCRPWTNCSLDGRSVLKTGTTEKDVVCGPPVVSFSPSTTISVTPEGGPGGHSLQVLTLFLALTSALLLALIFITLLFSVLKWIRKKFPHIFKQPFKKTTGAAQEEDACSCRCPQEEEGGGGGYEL

[2] = target: full-length human CD137-Fc fusion protein (human); assay: ELISA, coated CD137-Fc protein 2 µg/mL, antibody 10 or 5 µg/mL; absorbance 620 nm divided by that of the uncoated well
Chain of full-length human CD137-Fc fusion protein (human) (chain, as listed by the source limits assumed): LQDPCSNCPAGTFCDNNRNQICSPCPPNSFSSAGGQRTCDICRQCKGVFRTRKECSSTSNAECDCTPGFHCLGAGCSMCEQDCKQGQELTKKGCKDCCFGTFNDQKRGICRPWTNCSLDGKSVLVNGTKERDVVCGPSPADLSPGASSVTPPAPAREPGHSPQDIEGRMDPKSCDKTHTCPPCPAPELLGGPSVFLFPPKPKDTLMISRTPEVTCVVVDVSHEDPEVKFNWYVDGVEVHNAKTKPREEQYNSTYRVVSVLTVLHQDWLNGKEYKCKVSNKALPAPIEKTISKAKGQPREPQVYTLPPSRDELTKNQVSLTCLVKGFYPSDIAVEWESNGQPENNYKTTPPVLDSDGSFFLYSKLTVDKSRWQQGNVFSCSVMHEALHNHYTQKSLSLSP
Description: (§1) Fragmented human CD137-Fc fusion proteins were diluted to 2 μg/mL in an aqueous sodium carbonate solution adjusted to pH9.6. Fifty μL of a diluted fragmented human CD137-Fc fusion protein was added individually to each well of a Nunc MaxiSorp flat-bottom 96 well plate (Nunc). This was allowed to stand at 4° C. overnight or longer, and then the plate was allowed to stand at room temperature for one hour so that the plate has the same temperature as the room temperature. The solution containing the fragmented human CD137-Fc fusion protein was removed by tilting, and each well was washed three times with 300 μL of Wash buffer (TBS containing 0.1% Tween20, TaKaRa). Next, 150 μL of blocking buffer (TBS containing 2% BSA) was added to each well, and this was allowed to stand for one hour or more. The blocking buffer was removed by tilting, and each well was washed three times with Wash Buffer in a similar manner to an earlier step. Then, 50 μL of an antibody solution prepared in advance by dilution with TBS to 10 μg/mL or 5 μg/mL was added to each well. This was subjected to a speed of 600 rpm or so for one hour at room temperature to bind the antibody to the immobilized antigen. […] 100 μL of a secondary antibody solution produced by 1000-fold dilution with TBS containing 0.1% Tween20 was added to each well. For the secondary antibody, ANTIBODY ALKALINE PHOSPHATASE CONJUGATE HUMAN IMMUNOGLOBULIN ABSORBED Goat Anti-Human Kappa Alkaline Phosphate from BIOSOURCE was used in the case of antibodies carrying a Kappa chain, and Human Lambda Light Chain Antibody; Goat anti-Human Lambda Light Chain Antibody Alkaline Phosphatase Conjugated from BETHYL LABORATORIES INC. was used in the case of antibodies carrying a Lambda chain. […] Color development was performed using the BluePhos Microwell kit from KPL. After the chromogenic reaction was stopped using the AP stop solution from KPL, the absorbance was measured at 620 nm on an absorptiometer.

CRD1 [3] = target: T2, CRD1; assay: as above
T2 construct: also called fragmented human CD137-Fc fusion protein CRD1
T2 sequence (chain, as listed by the source limits assumed): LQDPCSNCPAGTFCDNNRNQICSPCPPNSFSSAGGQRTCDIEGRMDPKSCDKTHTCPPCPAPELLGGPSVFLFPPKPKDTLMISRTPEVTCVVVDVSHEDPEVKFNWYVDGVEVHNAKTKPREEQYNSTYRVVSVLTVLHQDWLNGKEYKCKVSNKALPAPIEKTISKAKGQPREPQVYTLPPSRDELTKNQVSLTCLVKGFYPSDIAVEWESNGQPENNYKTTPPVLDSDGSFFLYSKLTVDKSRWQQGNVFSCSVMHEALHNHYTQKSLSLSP
Description: as §1

CRD1-2 [4] = target: T3, CRD1-2; assay: as above
T3 construct: also called fragmented human CD137-Fc fusion protein CRD1-2
T3 sequence (chain, as listed by the source limits assumed): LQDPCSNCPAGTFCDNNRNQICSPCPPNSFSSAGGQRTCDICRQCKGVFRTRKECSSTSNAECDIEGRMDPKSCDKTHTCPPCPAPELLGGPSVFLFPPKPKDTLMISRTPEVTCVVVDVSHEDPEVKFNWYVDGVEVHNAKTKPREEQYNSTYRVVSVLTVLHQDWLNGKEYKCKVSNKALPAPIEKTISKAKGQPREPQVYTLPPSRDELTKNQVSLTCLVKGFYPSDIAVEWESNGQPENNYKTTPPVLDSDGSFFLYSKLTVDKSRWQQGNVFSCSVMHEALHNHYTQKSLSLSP
Description: as §1

CRD2-3 [5] = target: T4, CRD2-3; assay: ELISA, coated CD137-Fc protein 2 µg/mL, antibody 10 or 5 µg/mL, absorbance 620 nm; Non (uncoated well) 0.166
T4 construct: also called fragmented human CD137-Fc fusion protein CRD2-3
T4 sequence (chain, as listed by the source limits assumed): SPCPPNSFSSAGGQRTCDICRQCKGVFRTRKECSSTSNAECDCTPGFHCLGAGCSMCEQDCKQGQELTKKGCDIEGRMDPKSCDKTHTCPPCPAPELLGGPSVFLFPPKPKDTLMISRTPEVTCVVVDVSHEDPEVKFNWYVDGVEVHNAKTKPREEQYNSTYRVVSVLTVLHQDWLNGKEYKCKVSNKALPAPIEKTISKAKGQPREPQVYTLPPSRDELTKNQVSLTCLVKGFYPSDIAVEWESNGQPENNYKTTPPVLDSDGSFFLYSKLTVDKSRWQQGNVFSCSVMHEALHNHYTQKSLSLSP
Description: as §1

CRD3-4 [6] = target: T5, CRD3-4; assay: as above
T5 construct: also called fragmented human CD137-Fc fusion protein CRD3-4
T5 sequence (chain, as listed by the source limits assumed): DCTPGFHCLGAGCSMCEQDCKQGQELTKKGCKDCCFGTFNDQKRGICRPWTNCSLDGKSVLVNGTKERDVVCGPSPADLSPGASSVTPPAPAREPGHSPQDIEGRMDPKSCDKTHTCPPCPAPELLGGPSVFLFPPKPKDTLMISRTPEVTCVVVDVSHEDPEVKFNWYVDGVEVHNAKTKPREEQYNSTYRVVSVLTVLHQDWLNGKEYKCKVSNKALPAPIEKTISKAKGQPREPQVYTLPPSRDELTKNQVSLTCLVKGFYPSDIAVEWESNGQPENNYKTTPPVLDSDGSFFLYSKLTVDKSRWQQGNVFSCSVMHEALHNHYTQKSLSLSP
Description: as §1

CRD2-4 [7] = target: T6, CRD2-4; assay: as above
T6 construct: also called fragmented human CD137-Fc fusion protein CRD2-4
T6 sequence (chain, as listed by the source limits assumed): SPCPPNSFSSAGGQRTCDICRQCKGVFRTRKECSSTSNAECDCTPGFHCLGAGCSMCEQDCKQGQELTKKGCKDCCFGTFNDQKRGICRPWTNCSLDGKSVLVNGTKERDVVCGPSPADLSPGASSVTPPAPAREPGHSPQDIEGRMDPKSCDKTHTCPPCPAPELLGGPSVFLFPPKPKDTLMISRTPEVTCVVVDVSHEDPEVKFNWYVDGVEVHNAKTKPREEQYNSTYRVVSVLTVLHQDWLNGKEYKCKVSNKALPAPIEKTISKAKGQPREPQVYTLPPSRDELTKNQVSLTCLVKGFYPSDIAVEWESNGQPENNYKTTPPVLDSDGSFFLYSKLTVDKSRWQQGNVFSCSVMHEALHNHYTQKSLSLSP
Description: as §1

CRD1 [8] = target: T2, CRD1; assay: as above
Description: as §1

[9] = target: full-length human CD137-Fc fusion protein (human); assay: as above
Description: as §1

CRD1-2 [10] = target: T3, CRD1-2; assay: as above
Description: as §1

CRD1-3 [11] = target: T7, CRD1-3; assay: as above
T7 construct: also called fragmented human CD137-Fc fusion protein CRD1-3
T7 sequence (chain, as listed by the source limits assumed): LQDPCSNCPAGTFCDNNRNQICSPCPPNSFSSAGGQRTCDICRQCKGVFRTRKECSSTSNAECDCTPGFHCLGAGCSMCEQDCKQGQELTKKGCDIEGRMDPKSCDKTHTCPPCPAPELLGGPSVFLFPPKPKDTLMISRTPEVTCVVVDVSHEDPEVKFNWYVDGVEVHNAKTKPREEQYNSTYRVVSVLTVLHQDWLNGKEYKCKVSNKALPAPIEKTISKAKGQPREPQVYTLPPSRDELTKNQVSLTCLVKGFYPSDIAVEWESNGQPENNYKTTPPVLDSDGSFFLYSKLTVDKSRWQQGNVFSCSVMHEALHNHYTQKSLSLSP
Description: as §1

CRD2-3 [12] = target: T4, CRD2-3; assay: ELISA, coated CD137-Fc protein 2 µg/mL, antibody 10 or 5 µg/mL; absorbance 620 nm divided by that of the uncoated well
Description: as §1

CRD3-4 [13] = target: T5, CRD3-4; assay: as above
Description: as §1

CRD2-4 [14] = target: T6, CRD2-4; assay: as above
Description: as §1

CRD1-3 [15] = target: T7, CRD1-3; assay: as above
Description: as §1

CRD2-3 [16] = target: T4, CRD2-3; assay: ELISA, coated CD137-Fc protein 2 µg/mL, antibody 10 or 5 µg/mL, absorbance 620 nm; Non (uncoated well) 0.1705
Description: as §1

CRD3-4 [17] = target: T5, CRD3-4; assay: as above
Description: as §1

CRD2-4 [18] = target: T6, CRD2-4; assay: as above
Description: as §1

CRD1 [19] = target: T2, CRD1; assay: as above
Description: as §1

[20] = target: full-length human CD137-Fc fusion protein (human); assay: as above
Description: as §1

CRD1-2 [21] = target: T3, CRD1-2; assay: as above
Description: as §1

CRD1-3 [22] = target: T7, CRD1-3; assay: as above
Description: as §1

B1: H237-mIgG1/MRAL-k0 (antibody)
heavy: QVQLQESGPGLVKPSETLSLTCAVSGHSISHDHAWSWVRQPPGEGLEWIGFISYSGITNYNPSLQGRVTISRDNSKNTLYLQMNSLRAEDTAVYYCARSLARTTAMDYWGEGTLVTVSSAKTTPPSVYPLAPGSAAQTNSMVTLGCLVKGYFPEPVTVTWNSGSLSSGVHTFPAVLQSDLYTLSSSVTVPSSTWPSETVTCNVAHPASSTKVDKKIVPRDCGCKPCICTVPEVSSVFIFPPKPKDVLTITLTPKVTCVVVDISKDDPEVQFSWFVDDVEVHTAQTQPREEQFNSTFRSVSELPIMHQDWLNGKEFKCRVNSAAFPAPIEKTISKTKGRPKAPQVYTIPPPKEQMAKDKVSLTCMITDFFPEDITVEWQWNGQPAENYKNTQPIMDTDGSYFVYSKLNVQKSNWEAGNTFTCSVLHEGLHNHHTEKSLSHSPGK
light: not shown
notes: Anti-human IL-6 receptor variable region H237 with mouse IgG1 constant region; copies: 2 + 2
Kd [1]: 282 nM

B2: 1D8VH-MB492/1D8VL-mk0 (antibody, mouse IgG1, kappa, V domains shown)
VH: QVQLKEAGPGLVQPTQTLSLTCTVSGFSLTSDGVHWIRQPPGKGLEWMGIIYYDGGTDYNSAIKSRLSISRDTSKSQVFLKINSLQTDDTAMYYCARIHFDYWGQGVMVTVSS
VL: DIVLTQSPTTIAASPGEKVTITCRASSSVSYMYWYQQKSGASPKLWIYDTSKLASGVPNRFSGSGSGTSYSLAINTMETEDAATYYCQQWSSTPLTFGSGTKLEIKR
specific activity, mouse IFN-γ in the supernatant of spleen cells (ELISA) (mouse CD137 on T cells): ~8 fold

B3: R12 (antibody, V domains shown)
VH: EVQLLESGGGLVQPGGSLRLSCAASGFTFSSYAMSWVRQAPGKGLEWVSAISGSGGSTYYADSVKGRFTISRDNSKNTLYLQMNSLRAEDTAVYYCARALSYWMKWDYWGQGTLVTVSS
VL: DIQMTQSPSSLSASVGDRVTITCRASQSISSYLNWYQQKPGKAPKLLIYAASSLQSGVPSRFSGSGSGTDFTLTISSLQPEDFATYYCQQFNGFPLTFGGGTKVEIK
notes: Synthetic library clone; Fab on phage in the phage ELISA
Ratio with respect to Non-Coating [2]: 1.1

B4: R11 (antibody, V domains shown)
VH: QVQLLESGGGLVQPGGSLRLSCAASGFTFSSYAMSWVRQAPGKGLEWVSAISGSGGSTYYADSVKGRFTISRDNSKNTLYLQMNSLRAEDTAVYYCARDKWYYYPALDYWGQGTLVTVSS
VL: B3 VL with N92S, G93R
notes: as for B3
Ratio with respect to Non-Coating [2]: 1

B5: R13 (antibody, V domains shown)
VH: QVQLVESGGGLVQPGGSLRLSCAASGFTFSYYDIQWVRQAPGKGLEWVSSISPSGQSTYYRREVKGRFTISRDNSKNTLYLQMNSLRAEDTAVYYCARRTGREYGGGWYFDYWGQGTLVTVSS
VL: B3 VL with N92S, G93R
notes: as for B3
Ratio with respect to Non-Coating [2]: 0.4

B6: R19 (antibody, V domains shown)
VH: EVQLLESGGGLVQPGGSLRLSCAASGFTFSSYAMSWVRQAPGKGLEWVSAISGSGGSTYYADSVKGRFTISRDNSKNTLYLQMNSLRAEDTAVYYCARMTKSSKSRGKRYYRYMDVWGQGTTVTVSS
VL: B3 VL with Q89L, F91V, N92Y, G93S, F94S
notes: as for B3
Ratio with respect to Non-Coating [2]: 0.9

B7: R8 (antibody, V domains shown)
VH: QVQLQESGPGLVKPSETLSLTCAVSGYSISSGYYWGWIRQPPGKGLEWIGSIYHSGSTYYNPSLKSRVTISVDTSKNQFSLKLSSVTAADTAVYYCARQHSFTRYYGYYYFDYWGQGTTVTVSS
VL: B3 VL with Q89L, F91S, N92D, G93S, F94I
notes: as for B3
Ratio with respect to Non-Coating (CRD1 [3]): 0.7
Ratio with respect to Non-Coating (CRD1-2 [4]): 0.5

B8: R17 (antibody, V domains shown)
VH: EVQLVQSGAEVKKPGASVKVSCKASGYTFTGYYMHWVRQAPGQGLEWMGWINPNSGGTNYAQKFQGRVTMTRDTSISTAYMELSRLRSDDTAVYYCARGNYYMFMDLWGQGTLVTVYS
VL: B3 VL with Q89L, N92T, G93S
notes: as for B3
ELISA color development level (CRD2-3 [5]): 2.44
ELISA color development level (CRD3-4 [6]): 2.47
ELISA color development level (CRD2-4 [7]): 1.92
ELISA color development level (CRD1 [8]): 0.197
ELISA color development level [9]: 1.34
ELISA color development level (CRD1-2 [10]): 0.169
ELISA color development level (CRD1-3 [11]): 2.05
Ratio with respect to Non-Coating (CRD2-3 [12]): 14.7
Ratio with respect to Non-Coating (CRD3-4 [13]): 14.9
Ratio with respect to Non-Coating (CRD2-4 [14]): 11.6
Ratio with respect to Non-Coating (CRD1 [3]): 1.2
Ratio with respect to Non-Coating [2]: 8.1
Ratio with respect to Non-Coating (CRD1-2 [4]): 1
Ratio with respect to Non-Coating (CRD1-3 [15]): 12.4

B9: R15 (antibody, V domains shown)
VH: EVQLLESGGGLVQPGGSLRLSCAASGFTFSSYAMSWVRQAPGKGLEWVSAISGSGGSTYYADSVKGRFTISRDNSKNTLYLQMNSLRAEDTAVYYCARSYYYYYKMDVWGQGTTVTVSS
VL: B3 VL with N92V, G93R, F94H, L96P
notes: as for B3
Ratio with respect to Non-Coating [2]: 0.6

B10: R14 (antibody, V domains shown)
VH: B4 VH
VL: B3 VL with Q89L, F91V, N92Y, G93R, F94S
notes: as for B3
Ratio with respect to Non-Coating [2]: 0.9

B11: R16 (antibody, V domains shown)
VH: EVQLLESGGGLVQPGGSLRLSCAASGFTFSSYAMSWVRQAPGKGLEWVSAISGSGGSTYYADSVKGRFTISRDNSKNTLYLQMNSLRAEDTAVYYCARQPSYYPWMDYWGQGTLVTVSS
VL: B3 VL with G93N, F94Y
notes: as for B3
ELISA color development level (CRD2-3 [16]): 2.54
ELISA color development level (CRD3-4 [17]): 2.63
ELISA color development level (CRD2-4 [18]): 2.17
ELISA color development level (CRD1 [19]): 0.286
ELISA color development level [20]: 1.93
ELISA color development level (CRD1-2 [21]): 0.269
ELISA color development level (CRD1-3 [22]): 2.24
Ratio with respect to Non-Coating (CRD2-3 [12]): 14.9
Ratio with respect to Non-Coating (CRD3-4 [13]): 15.4
Ratio with respect to Non-Coating (CRD2-4 [14]): 12.7
Ratio with respect to Non-Coating (CRD1 [3]): 1.7
Ratio with respect to Non-Coating [2]: 11.3
Ratio with respect to Non-Coating (CRD1-2 [4]): 1.6
Ratio with respect to Non-Coating (CRD1-3 [15]): 13.1
